Laboratory results published in patent US20100040602A1 (RIBOVAX BIOTECHNOLOGIES, published 2010).

Experiments:
[1] = target: T1, gH(Ag)-GST fusion protein (gH amino terminal region, amino acids 16-144, hCMV strain VR1814, fused in frame … (human cytomegalovirus strain VR1814, UniProt P12824 16-144)); test: ELISA, plate-coated gH(Ag)-GST, cell culture supernatant, anti-human IgG-HRP
T1 construct: also called gH antigen; not shown: Glutathione-S-Transferase (GST)
T1 chain: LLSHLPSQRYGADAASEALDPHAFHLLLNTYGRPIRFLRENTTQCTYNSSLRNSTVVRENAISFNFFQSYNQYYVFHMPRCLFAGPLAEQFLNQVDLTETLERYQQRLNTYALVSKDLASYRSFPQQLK

[2] = target: T2, CG3 antigen (recombinant interstrain fusion of gB Antigenic Domain 2 from hCMV strains AD169 and Towne) (human cytomegalovirus strain AD169; …); test: ELISA, CG3 antigen (gB AD2), cell culture supernatant
T2 construct: Commercial antigen (Biotest AG, cod. 807035); also called gB (AD2) antigen
T2 chain: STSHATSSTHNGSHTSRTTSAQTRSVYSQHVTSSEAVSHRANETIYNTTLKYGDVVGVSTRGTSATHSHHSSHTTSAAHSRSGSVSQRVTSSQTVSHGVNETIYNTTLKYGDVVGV

B1: 26A1 antibody (natural human IgG1 secreted by the 26A1 subculture, tested as cell culture supernatant) (antibody, V domains shown)
VH: QVQLQESGPGLVKPSQTLSLICTVSGGSVSSGGDYWTWIRQHPGKGLEWLGYIHSSGNIFYNPSLKSRLTLSMDTSKNQFFLKLTSVTAADTAVYYCARVYHKDFVVVPGAFPFEFWFDPWGQGTLVTVSS
VL: SYVLTQPPSVSVAPGQTARIPCGGNEIGSKSVHWYQQKPGQAPVLVVHDDSDRPSGIPDRFSGSNSGNTATLTISRVEAGDEADYYCQVWDSGSDHHVVFGGGTKLTVLG
notes: It is a human IgG1; also called 26A1 IgG; IgG1 produced by 26A1 culture
B1: no binding [1]; no binding [2].
